B1: Ia_S2_P5E.1_K5.1_C5.1_H5.1_A5.1_[T5C]_F5.1_T5.1 (ssRNA)
RNA: UUUGAUUAAUAUGAUAUCGUUCUUUCUUGUACUAUUAUUCUUUCUCGAUAUCAUAUUAAUCUUU

Tests used:
[1] = target: T1, PUF4 RNA-binding domain (Pumilio homology domain) (Saccharomyces cerevisiae) (UniProt P25339); assay: RNA-MaP; conditions: RNA-MaP: 20 mM Na-HEPES pH 7.4, 0.1% Tween-20, 5% glycerol, 0.1 mg/mL BSA, 2 mM DTT, low salt 0.75 mM MgCl2 + 30 mM KOAc (model data; high salt 2 mM MgCl2 + …)
T1 sequence: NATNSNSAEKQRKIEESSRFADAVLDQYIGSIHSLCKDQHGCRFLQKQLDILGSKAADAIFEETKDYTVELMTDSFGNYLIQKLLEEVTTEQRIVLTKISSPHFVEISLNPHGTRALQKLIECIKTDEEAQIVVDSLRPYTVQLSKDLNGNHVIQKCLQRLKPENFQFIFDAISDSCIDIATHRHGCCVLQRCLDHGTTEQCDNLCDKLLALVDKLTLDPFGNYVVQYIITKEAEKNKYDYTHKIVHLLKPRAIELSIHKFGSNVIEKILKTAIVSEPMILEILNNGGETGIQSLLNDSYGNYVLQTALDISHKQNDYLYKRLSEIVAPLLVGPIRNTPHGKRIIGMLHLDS

[2] = target: T2, PUF4 RNA-binding domain (Pumilio homology domain) (Saccharomyces cerevisiae, UniProt P25339 537-888); assay: RNA-MaP; ddG 3.526; RNA-MaP: 20 mM Na-HEPES pH 7.4, 0.1% Tween-20, 5% glycerol, 0.1 mg/mL BSA, 2 mM DTT, low salt 0.75 mM MgCl2 + 30 mM KOAc (model data; high salt 2 mM MgCl2 + 100 mM KOAc), 25 C; conditions: protein: recombinant; tags: C-terminal SNAP tag, Cy3B-labeled; N-terminal His tag removed with TEV; label: array RNA; single-stranded
T2 sequence: T1 sequence

PUF4 RNA-binding domain = target: T3, PUF4 RNA-binding domain (Saccharomyces cerevisiae, UniProt P25339 537-888); assay: Mg; RNA-MaP; 20 mM Na-HEPES pH 7.4, 30 mM KOAc, 0.75 mM MgCl2, 0.1% Tween-20, 5% glycerol, 0.1 mg/mL BSA, 2 mM DTT; 25 C; 0.0125-409.6 nM protein; conditions: tags: N-His6-TEV cleaved; C-SNAP kept, Cy3B-labelled; label: tethered on chip by stalled RNA polymerase
T3 sequence: T1 sequence

[3] = target: T2, PUF4 RNA-binding domain (Pumilio …); assay: RNA-MaP; ddG 2.995; RNA-MaP: 20 mM Na-HEPES pH 7.4, 0.1% Tween-20, 5% glycerol, 0.1 mg/mL BSA, 2 mM DTT, low salt 0.75 mM MgCl2 + 30 mM KOAc (model data; high salt 2 mM MgCl2 + 100 mM KOAc), 25 C; conditions: protein: recombinant; tags: C-terminal SNAP tag, Cy3B-labeled; N-terminal His tag removed with TEV; label: array RNA; single-stranded
[4] = target: T2, PUF4 RNA-binding domain (Pumilio …); assay: RNA-MaP; ddG 1.591; RNA-MaP: 20 mM Na-HEPES pH 7.4, 0.1% Tween-20, 5% glycerol, 0.1 mg/mL BSA, 2 mM DTT, low salt 0.75 mM MgCl2 + 30 mM KOAc (model data; high salt 2 mM MgCl2 + 100 mM KOAc), 25 C; conditions: protein: recombinant; tags: C-terminal SNAP tag, Cy3B-labeled; N-terminal His tag removed with TEV; label: array RNA; single-stranded
[5] = target: T2, PUF4 RNA-binding domain (Pumilio …); assay: RNA-MaP; ddG 1.467; RNA-MaP: 20 mM Na-HEPES pH 7.4, 0.1% Tween-20, 5% glycerol, 0.1 mg/mL BSA, 2 mM DTT, low salt 0.75 mM MgCl2 + 30 mM KOAc (model data; high salt 2 mM MgCl2 + 100 mM KOAc), 25 C; conditions: protein: recombinant; tags: C-terminal SNAP tag, Cy3B-labeled; N-terminal His tag removed with TEV; label: array RNA; single-stranded
[6] = target: T2, PUF4 RNA-binding domain (Pumilio …); assay: EMSA (active-fraction titration); high salt: 2 mM MgCl2, 100 mM KOAc; 69% active protein; RNA-MaP: 20 mM Na-HEPES pH 7.4, 0.1% Tween-20, 5% glycerol, 0.1 mg/mL BSA, 2 mM DTT, low salt 0.75 mM MgCl2 + 30 mM KOAc (model data; high salt 2 mM MgCl2 + 100 mM KOAc), 25 C; conditions: protein: recombinant; tags: C-terminal SNAP tag, Cy3B-labeled; N-terminal His tag removed with TEV; label: 32P (trace) plus unlabeled; single-stranded
[7] = target: T2, PUF4 RNA-binding domain (Pumilio …); assay: RNA-MaP; ddG 1.827; RNA-MaP: 20 mM Na-HEPES pH 7.4, 0.1% Tween-20, 5% glycerol, 0.1 mg/mL BSA, 2 mM DTT, low salt 0.75 mM MgCl2 + 30 mM KOAc (model data; high salt 2 mM MgCl2 + 100 mM KOAc), 25 C; conditions: protein: recombinant; tags: C-terminal SNAP tag, Cy3B-labeled; N-terminal His tag removed with TEV; label: array RNA; single-stranded
[8] = target: T2, PUF4 RNA-binding domain (Pumilio …); assay: RNA-MaP; ddG 0.613; RNA-MaP: 20 mM Na-HEPES pH 7.4, 0.1% Tween-20, 5% glycerol, 0.1 mg/mL BSA, 2 mM DTT, low salt 0.75 mM MgCl2 + 30 mM KOAc (model data; high salt 2 mM MgCl2 + 100 mM KOAc), 25 C; conditions: protein: recombinant; tags: C-terminal SNAP tag, Cy3B-labeled; N-terminal His tag removed with TEV; label: array RNA; single-stranded
[9] = target: T2, PUF4 RNA-binding domain (Pumilio …); assay: RNA-MaP; ddG 3.166; RNA-MaP: 20 mM Na-HEPES pH 7.4, 0.1% Tween-20, 5% glycerol, 0.1 mg/mL BSA, 2 mM DTT, low salt 0.75 mM MgCl2 + 30 mM KOAc (model data; high salt 2 mM MgCl2 + 100 mM KOAc), 25 C; conditions: protein: recombinant; tags: C-terminal SNAP tag, Cy3B-labeled; N-terminal His tag removed with TEV; label: array RNA; single-stranded
[10] = target: T2, PUF4 RNA-binding domain (Pumilio …); assay: RNA-MaP; ddG 0.961; RNA-MaP: 20 mM Na-HEPES pH 7.4, 0.1% Tween-20, 5% glycerol, 0.1 mg/mL BSA, 2 mM DTT, low salt 0.75 mM MgCl2 + 30 mM KOAc (model data; high salt 2 mM MgCl2 + 100 mM KOAc), 25 C; conditions: protein: recombinant; tags: C-terminal SNAP tag, Cy3B-labeled; N-terminal His tag removed with TEV; label: array RNA; single-stranded
[11] = target: T2, PUF4 RNA-binding domain (Pumilio …); assay: RNA-MaP; ddG 1.641; RNA-MaP: 20 mM Na-HEPES pH 7.4, 0.1% Tween-20, 5% glycerol, 0.1 mg/mL BSA, 2 mM DTT, low salt 0.75 mM MgCl2 + 30 mM KOAc (model data; high salt 2 mM MgCl2 + 100 mM KOAc), 25 C; conditions: protein: recombinant; tags: C-terminal SNAP tag, Cy3B-labeled; N-terminal His tag removed with TEV; label: array RNA; single-stranded
[12] = target: T2, PUF4 RNA-binding domain (Pumilio …); assay: RNA-MaP; ddG 1.315; RNA-MaP: 20 mM Na-HEPES pH 7.4, 0.1% Tween-20, 5% glycerol, 0.1 mg/mL BSA, 2 mM DTT, low salt 0.75 mM MgCl2 + 30 mM KOAc (model data; high salt 2 mM MgCl2 + 100 mM KOAc), 25 C; conditions: protein: recombinant; tags: C-terminal SNAP tag, Cy3B-labeled; N-terminal His tag removed with TEV; label: array RNA; single-stranded
[13] = target: T2, PUF4 RNA-binding domain (Pumilio …); assay: RNA-MaP; ddG 0.390; RNA-MaP: 20 mM Na-HEPES pH 7.4, 0.1% Tween-20, 5% glycerol, 0.1 mg/mL BSA, 2 mM DTT, low salt 0.75 mM MgCl2 + 30 mM KOAc (model data; high salt 2 mM MgCl2 + 100 mM KOAc), 25 C; conditions: protein: recombinant; tags: C-terminal SNAP tag, Cy3B-labeled; N-terminal His tag removed with TEV; label: array RNA; single-stranded

Molecule	Kd (PUF4 RNA-binding domain) [nM]	further results
UGUAUCGCAC in S1b scaffold	–	Kd [1]: > 2400 nM
UGUAUAUUAU in S1a scaffold	–	Kd [1]: 0.88 nM
UCUCUUUGUCUAUAUCUCUU (ssRNA) [S1a K3.1 A4C]	–	Kd [2]: -8.09 ± 0.737 kcal/mol (dG=RTlnKd)
ACAAACUCUAUAUCAACAAAC (ssRNA) [Ib_S3_P4E.1_K4.1_C4.1_H4.1_[G2C]_A4.1_F4.1_[T8C]_T4.1]	> 2300	–
ACAAACAGUAUAUCAACAAAC (ssRNA) [Ib_S3_P4E.1_K4.1_C4.1_H4.1_[T1A]_A4.1_F4.1_[T8C]_T4.1]	> 2300	–
UCUCUUUGUUUAUAUCUCUU (ssRNA) [S1a K3.1 A4T]	–	Kd [3]: -8.62 ± 0.651 kcal/mol (dG=RTlnKd)
UCUCUUUGUAUACAUCUCUU (ssRNA) [S1a K3.1 T7C]	–	Kd [4]: -10 ± 0.544 kcal/mol (dG=RTlnKd)
B1	1.48	–
ACAAACAGUAUAUAAACAAAC (ssRNA) [Ib_S3_P4E.1_K4.1_C4.1_H4.1_[T1A]_A4.1_F4.1_[T8A]_T4.1]	> 2300	–
UCUCUUUGUAUUUAUCUCUU (ssRNA) [S1a K3.1 A6T]	–	Kd [5]: -10.2 ± 0.227 kcal/mol (dG=RTlnKd)
ACAAACCGUAUAUUCACAAAC (ssRNA) [Ib_S3_P4E.1_K4.1_C4.1_H4.1_[T1C]_A4.1_F4.1_[A9C]_T4.1]	> 2300	–
AUGUGUAUAUUAGU (ssRNA) [consensus RNA 14-mer]	–	binding result [6]: binds
UCUCUUUGUAUGUAUCUCUU (ssRNA) [S1a K3.1 A6G]	–	Kd [7]: -9.79 ± 0.309 kcal/mol (dG=RTlnKd)
ACAAACUUUAUAUUCACAAAC (ssRNA) [Ib_S3_P4E.1_K4.1_C4.1_H4.1_[G2T]_A4.1_F4.1_[A9C]_T4.1]	> 2300	–
UCUCUUUGUAUAUCAUCUCUU (ssRNA) [S1a K4.1 T8C]	–	Kd [8]: -11 ± 0.259 kcal/mol (dG=RTlnKd)
UCUCUUUAUAUAUAUCUCUU (ssRNA) [S1a K3.1 G2A]	–	Kd [9]: -8.45 ± 0.403 kcal/mol (dG=RTlnKd)

Molecule	Kd (PUF4 RNA-binding domain) [nM]	further results
ACAAACGGUAUAUAAACAAAC (ssRNA) [Ib_S3_P4E.1_K4.1_C4.1_H4.1_[T1G]_A4.1_F4.1_[T8A]_T4.1]	1980	–
ACAAACUGCAUAUUCACAAAC (ssRNA) [Ib_S3_P4E.1_K4.1_C4.1_H4.1_[T3C]_A4.1_F4.1_[A9C]_T4.1]	> 2300	–
ACAAACACUAUAUUAACAAAC (ssRNA) [Ib_S3_P4E.1_K4.1_C4.1_H4.1_[T1A]_[G2C]_A4.1_F4.1_T4.1]	> 2300	–
UCUCUUUGUAUAUGAUCUCUU (ssRNA) [S1a K4.1 T8G]	–	Kd [10]: -10.7 ± 0.299 kcal/mol (dG=RTlnKd)
ACAAACUAUAUAUUCACAAAC (ssRNA) [Ib_S3_P4E.1_K4.1_C4.1_H4.1_[G2A]_A4.1_F4.1_[A9C]_T4.1]	1480	–
ACAAACUGAAUCUAACAAAC (ssRNA) [Ib_S3_P3E.1_K3.1_C3.1_H3.1_[T3A]_A3.1_[A6C]_F3.1_T3.1]	> 2300	–
ACAAACUCUAUAUUCACAAAC (ssRNA) [Ib_S3_P4E.1_K4.1_C4.1_H4.1_[G2C]_A4.1_F4.1_[A9C]_T4.1]	> 2300	–
UCUCUUUGUAUCUAUCUCUU (ssRNA) [S1a K3.1 A6C]	–	Kd [11]: -9.98 ± 0.415 kcal/mol (dG=RTlnKd)
ACAAACUGUCUUUAACAAAC (ssRNA) [Ib_S3_P3E.1_K3.1_C3.1_H3.1_[A4C]_A3.1_[A6T]_F3.1_T3.1]	> 2300	–
ACAAACUGGAUUUAACAAAC (ssRNA) [Ib_S3_P3E.1_K3.1_C3.1_H3.1_[T3G]_A3.1_[A6T]_F3.1_T3.1]	> 2300	–
ACAAACGGUAUAUGAACAAAC (ssRNA) [Ib_S3_P4E.1_K4.1_C4.1_H4.1_[T1G]_A4.1_F4.1_[T8G]_T4.1]	> 2300	–
ACAAACUGCAUAUUUACAAAC (ssRNA) [Ib_S3_P4E.1_K4.1_C4.1_H4.1_[T3C]_A4.1_F4.1_[A9T]_T4.1]	839	–
UCUCUUUGUAAAUAUCUCUU (ssRNA) [S1a K3.1 T5A]	–	Kd [12]: -10.3 ± 0.252 kcal/mol (dG=RTlnKd)
ACAAACUGCAGAUAACAAAC (ssRNA) [Ib_S3_P3E.1_K3.1_C3.1_H3.1_[T3C]_A3.1_[T5G]_F3.1_T3.1]	> 2300	–
UCUCUUUGUACAUAUCUCUU (ssRNA) [S1a K3.1 T5C]	–	Kd [13]: -11.2 ± 0.37 kcal/mol (dG=RTlnKd)

— PMC9352680, “A comprehensive thermodynamic model for RNA binding by the Saccharomyces cerevisiae Pumilio protein PUF4”
